Data taken from article PMC8760232, “Is reduced ferredoxin the physiological electron donor for MetVF-type methylenetetrahydrofolate reductases in acetogenesis? A hypothesis” (International Microbiology, 2021).
Each block holds one molecule with its values, some of them ahead of it.

Tests used:
[1] = target: MetVF heterodimer of the methylene-tetrahydrofolate reductase (MTHFR) from Clostridium ljungdahlii (Clostridium ljungdahlii (endogenous in C. ljungdahlii)); experiment: SEC; analytical gel filtration of the purified MTHFR on Superdex 200 Increase, column calibrated with high- and low-molecular weight kits; dimer of MetVF heterodimers
[2] = substrate: Nc1nc2c(c(=O)[nH]1)N1CN(c3ccc(C(=O)N[C@@H](CCC(=O)O)C(=O)O)cc3)C[C@H]1CN2; experiment: purified protein; assay type: biochemical, Clostridium ljungdahlii; conditions: reduced ferredoxin as electron donor, 50 mM NaPi, 2 mM DTE, pH 7, 37 °C, methylene-THF made from formaldehyde and THF

- stoichiometry N [1]: 2
Molecule: MetVF heterodimer of the methylene-tetrahydrofolate reductase (MTHFR) from Clostridium ljungdahlii (complex)

B1: MetVF-type methylene-THF reductase (MTHFR) of C. ljungdahlii (Clostridium ljungdahlii DSM 13528) (protein)
chain: MSLLKEAFEKGEFAITAEMAPPKGTDLSHLIECAKKIKGRVQGVNVTDFQSATLKATSLATCKVLKDAGLEPVFQITGRDRNRIAIQGELLSAGVFEIENVLALTGDYTATGDHPGAKPVYDLDSVGILQVASILNGGKDMGGTDLKGKPDFFLGACVTPRYDPLELQVIKMKKKIKAGAKFFQTQAVYDMETLKKFKEETKAQGVDAKVMVGIIPLKSAGMAKYMNKNVPGIFVPDELIDRMKNAEDKVQEGIKIAGEFIKAVKESGLCDGVHIMAIGAEENVPLILDEAGL
notes: native enzyme purified from C. ljungdahlii cytoplasm, untagged; (MetVF)2 dimer of heterodimers, ~106 kDa native; MetF 33-35 kDa, MetV 23 kDa; FMN and 4Fe-4S clusters; with Methylene-tetrahydrofolate reductase C-terminal-like domain-containing protein
- K0.5 [2]: 70 µM
